Assay [1] has as its target T1, SARS-CoV-2 WT RBD protein (residues 319-541) (SARS-CoV-2, UniProt P0DTC2). The assay is described as follows: SPR. Background: Surface plasmon resonance follows binding to a sensor surface in real time, without labels.
Assay [2] deals with T2, RBD protein of SARS-CoV (Severe acute respiratory syndrome …, UniProt P59594). The assay is described as follows: SPR.
Assay [3] addresses T1, SARS-CoV-2 WT RBD protein (residues …). The assay is described as follows: ELISA. On the technique in general: An ELISA detects its analyte on a solid surface through an enzyme-linked reagent.
Assay [4] addresses T2, RBD protein of SARS-CoV. The experiment in a line: cell-based or functional assay.

B1: H014 (antibody, V domains shown)
VH: EVQLVQSGAEVKKPGATVKISCKVSGYSFSNYYIHWVKQAPGKSLEWIGYIDPFNGGTSDNLKFKGAATLTADTSTDTAYMELSSLRSEDTAVYYCARSEYDPYYVMDYWGQGTTVTVSS
VL: IVLTQSPFQSVSPKEKVTITCRASQSISSNLHWYQQKPDQSPKLLIKYASQSISGIPSRFSGSGSGTDFTLTINSLEAEDFGIYFCQQTNFWPYIFGQGTKLEIL
With B1, in assay [1], the binding result was “binds”.

B2: S2X35 (antibody, V domains shown)
VH: QVQLVQSGAEVKKPGASVKVSCKASGYTFTNYGISWVRQAPGQGLEWMGWISAYKGNTNYAQKLQGRVTMTTDTSTSTAYMELRSLRSDDTAVYYCARPDYQVLGYDFWIGYYGMDVWGQGTTVIVSS
VL: QSVLTQPPSVSGAPGQRVTISCTGSSSNIGAGYDVHWYQQLPGTAPKLLIYGNTNRPSGVPDRFSGSKSGTSASLAITGLQAEDEADYYCQSYDSSLSGSEVVFGGGTKLTVL
Take B2: in assay [1], the binding result is “binds”.

B3: C118 (antibody, V domains shown)
VH: QVQLVESGGGVVQPGRSLRLSCAASGFTFSNYAMHWVRQAPGKGLEWVAVISYDGSNKYYADSVKGRFTISRDNSKNTLYLQMNSLRAEDTAIYYCASGYTGYDYFVRGDYYGLDVWGQGTTVTVSS
VL: QPVLTQSPSASASLGASVKLTCTLSSGHSSYAIAWHQQQPEKGPRYLMKLNTDGSHSKGDGIPDRFSGSSSGAERYLTISSLQSEDEADYYCQTWGTGILVFGGGTKLTVL
With B3, the binding result in assay [1] is “binds”.

B4: EY6A (antibody, V domains shown)
VH: EVQLVESGGGVVQPGRSLRLSCAASAFTFSSYDMHWVRQAPGKGLEWVAVISYDGSNKYYADSVKGRFTISRDNSKNTLYLQMNSLRAEDTAVYYCAKDGGKLWVYYFDYWGQGTLVTVSS
VL: not shown
Consider B4, for which the binding result in assay [1] is given as “binds”.

B5: VacW-209 (antibody, V domains shown)
VH: QVQLVESGGGVVQPGRSLRLSCAASGFTFSSIAMHWVRQAPGKGLEWVAVMSFDGSIKYYGDSVKGRFTISRDNSKSTLYLQMNSLRAEDTAVYYCARGVQGYYDRSGYYNLDYNYGMDVWGQGTTVTVSS
VL: QSVLTQPPSVSGAPGQRVTISCTGSSSNIGAGYDVHWYQQLPGTAPKLLIYGNSNRPSGVPDRFSGSKSGTSASLAITGLQAEDEADYYCQSYDSSLSGWVFGGGTKLTVL
As usually defined, the Kd is the free concentration of one partner at which half of the binding sites on the other are occupied at equilibrium, for simple one-to-one binding. On to B5, for which binding in assay [2] was characterised by a dissociation constant (Kd) of 0.54 nM. In addition, the binding result in assay [3] is listed as “binds”. Further, the “IC50 of neutralisation of SARS-CoV pseudovirus (HEK-293T-hACE2 cells)” value in assay [4] was 0.141 µg/mL.

B6: C022 (antibody, V domains shown)
VH: QVQLQESGPGLVKPSETLSVTCTVSGGSISSSRYYWGWIRQPPGKGLEWIGSIYYSGSTYYNPSLKSRVTISVDTSKNQFSLKLSSVTAADTAVYYCARHAAAYYDRSGYYFIEYFQHWGQGTLVTVSS
VL: DIQMTQSPSTLSASVGDSVTITCRASQSISSWLAWYQQKPGKAPKLLIYKASSLESGVPSRFSGSGSGTEFTLTISSLQPDDFATYYCQQYNNYRYTFGQGTKLEIK
With B6, in assay [1], the binding result is reported as “binds”.

For the origin of these results see paper doi:10.1101/2022.01.19.476892 (bioRxiv, 2022).
